Results as given in paper PMC3734851.
“And” between values parts separate entries of the source, which are not always exact repeats. Equal values may be shown once. Read-outs that look alike come from different tables or passages of the source.

What was measured:
[1] = biological target: αβ-tubulin (unpolymerized, as used in gel filtration and analytical ultracentrifugation) (yeast) (UniProt P09733); test: AUC
[2] = biological target: αβ-tubulin (unpolymerized, as used in gel filtration and analytical ultracentrifugation) (yeast) (UniProt P09733)
[3] = biological target: TOG1-TOG2 of Stu2p (yeast); test: AUC
[4] = biological target: TOG1-TOG2 of Stu2p (yeast); test: AUC; remark: listed apart in the source

stoichiometry N [1] | Kd [2] | stoichiometry N [3] | stoichiometry N [4] | Substance
1 | 200 to 300 nM | – | – | TOG2 domain of Stu2p (domain or fragment)
– | – | 1 and 2 | 1 | αβ-tubulin (unpolymerized, as used in gel filtration and analytical ultracentrifugation) (from UniProt P09733 1-447; P02557 1-457) (complex)
